In patent US11872268B2, “Safe and effective beta-lactamase dosing for microbiome protection” (Theriva Biologics, Inc., priority 2015, dated 2024):
Like-named read-outs stand apart in the source and are kept apart here.

How the values were obtained:
[1] = design: species or system human; conditions: in vivo
Experimental: (§1) This example evaluated the effects of two strengths of oral SYN-004 (75 mg or 150 mg) administered twice in six hours on the plasma pharmacokinetics (PK) and chyme concentrations of a single dose of ceftriaxone administered as an intravenous (IV) infusion (1 g infused over 30 minutes). Further, this example evaluated if SYN-004 was present in chyme, if there was absorption of SYN-004 into plasma, and the safety and tolerability of SYN-004 (75 mg or 150 mg) in combination with IV ceftriaxone.
This was a Phase 1, randomized, multi-center, open-label study. Ten otherwise healthy subjects with functioning ileostomies who were between the ages of 18 and 80 years, inclusive, were enrolled. As an overview, in the first treatment period (Period 1) all subjects received an IV infusion of 1 gram (g) ceftriaxone. In the second treatment period (Period 2) all subjects received an IV infusion of 1 g ceftriaxone and 2 doses of either 75 mg or 150 mg of SYN-004, according to the randomization schedule, and administered 30 minutes before and 5.5 hours after the ceftriaxone infusion. Subjects were screened for study participation within 45 days prior to Check-in (Day −1), and the entire duration of the study may be up to 64 days (from Screening to the end-of-study visit).
The active dosage form of SYN-004 being administered was a hard gelatin, size 0, opaque white capsule containing delayed-release mini-pellets. Subjects randomized to Treatment AB received two oral doses of SYN-004 75 mg (1×75 mg capsule) twice in one day on Day 1 of Period 2. Subjects randomized to Treatment AC received two oral doses of SYN-004 150 mg (2×75 mg capsules) twice in one day on Day 1 of Period 2.
Specifically, in Period 1, all subjects received an IV infusion of 1 g ceftriaxone administered over 30 minutes on Day 1. In Period 2, subjects again received an IV infusion of 1 g ceftriaxone administered over 30 minutes on Day 1, as well as two oral doses of SYN-004 (75 mg or 150 mg) 30 minutes before and 5.5 hours after the IV infusion of 1 g ceftriaxone. All subjects received an infusion of ceftriaxone 1 g over 30 minutes in Period 1 and a second identical, time matched infusion in Period 2. The exact time of day of dosing for consecutive subjects may be staggered (±1 hour) to accommodate sample collection logistics; however, the time of day of ceftriaxone administration on Day 1 in Periods 1 and 2 were consistent for each subject.
With respect to meals and fluid intake, on Day 1 in each period, subjects received a small non-fatty meal approximately 1 hour (7:00 AM) prior to administration of ceftriaxone and again 5 hours after the start of infusion (1:00 PM). Subjects received full meals at approximately 2 and 7.5 hours after the start of the infusion (10:00 AM and 3:30 PM), respectively. In order to generate sufficient chyme output, subjects drank 8 ounces of water or apple juice at the start of the infusion and at 0.5, 1, and 1.5 hours after the start of the infusion (i.e., every half hour between 8:00 AM and 9:30 AM); thereafter, subjects were encouraged to drink 8 ounces of water or apple juice hourly between 2 and 7 hours after the start of the infusion (10:00 AM to 3:00 PM).
On Day 1, Period 1, serial blood and chyme samples were collected from approximately 30 minutes pre-dose through approximately 7 hours for serial blood and 8.5 for chyme after the start of infusion for determination of ceftriaxone concentration. […]

[2] = Phase 1b/2a ileostomy study (Example 5): ceftriaxone plasma concentration; type: in vivo, human; conditions: 1 g IV with and without oral SYN-004 75 or 150 mg
Experimental: as §1
This was a Phase 1, randomized, multi-center, open-label study. Ten otherwise healthy subjects with functioning ileostomies who were between the ages of 18 and 80 years, inclusive, were enrolled. […]
Pharmacokinetics: Serial blood (5 mL each) and chyme samples (2 mL minimum) were collected on Day 1 of Period 1 and Period 2. The following PK parameters of SYN-004 and ceftriaxone were determined from the plasma and chyme concentration-time data for all evaluable subjects using non-compartmental methods: maximum observed plasma concentration (Cmax), area under the concentration-time curve from time 0 to the last quantifiable concentration (AUCt), and time to reach Cmax (Tmax) as applicable. In addition, area under the concentration-time curve from time 0 to infinity (AUC∞) was calculated where determinable.

SYN-004 = SYN-004 (Bacillus licheniformis, UniProt P00808, D288N); assay: SYN-004 activity in human intestinal chyme in the presence of beta-lactamase inhibitor (ceftriaxone by LC/MS-MS); type: biochemical; conditions: 20 mg/ml Sulbactam, 8 ug/ml SYN-004
Experimental: Ceftriaxone (at 3 ug/ml or 1500 ug/ml) was mixed with human intestinal chyme alone, or with chyme plus SYN-004 (8 ug/ml) or with chyme plus the beta-lactamase inhibitor sulbactam, (20 mg/ml) or chyme plus both and then the samples were flash frozen. The flash frozen samples were thawed on ice and sulbactam was added to some samples, the protein was precipitated with acetonitrile and the samples were analyzed for ceftriaxone concentration by LC/MS-MS. The table below provides results from triplicate samples.

[3] = human, in vivo, po
Experimental: A Phase 1, double blind, placebo controlled study was carried out to assess the safety, tolerability, and pharmacokinetics (PK) of SYN-004 in healthy adult subjects. Specifically, a single dose of oral SYN-004 capsule (75 mg, 150 mg, 300 mg, 600 mg, or 750 mg) was administered to subjects. Blood samples were collected for PK evaluation and determination of anti-SYN-004 antibodies. A total of 40 healthy adult subjects were enrolled in the study with 6 active and 2 placebo subjects per cohort.

[4] = human, in vivo
Experimental: (§2) A Phase 1, double blind, randomized, placebo controlled study was carried out to assess the safety, tolerability, and PK of SYN-004 in healthy adult subjects. Specifically, multiple doses of oral SYN-004 capsules (75 mg, 150 mg, or 300 mg) were administered to the subjects at 4 doses per day for 7 days. Blood samples were collected for PK evaluation and determination of anti-SYN-004 antibodies. A total of 24 healthy adult subjects were enrolled in the study with 6 active and 2 placebo subjects per cohort.

[5] = design: species or system human; conditions: in vivo, po
Experimental: as §2

Sequence of SYN-004 (P00808 44-307 D288N): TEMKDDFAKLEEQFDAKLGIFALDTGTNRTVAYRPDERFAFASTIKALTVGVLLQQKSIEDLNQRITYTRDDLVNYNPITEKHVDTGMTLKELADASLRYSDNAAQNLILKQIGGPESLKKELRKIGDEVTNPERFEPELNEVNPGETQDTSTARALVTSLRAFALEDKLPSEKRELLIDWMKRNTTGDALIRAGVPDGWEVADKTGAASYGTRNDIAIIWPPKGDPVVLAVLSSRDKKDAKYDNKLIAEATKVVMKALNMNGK

Question: What does the source list for `CO/N=C(\C(=O)N[C@@H]1C(=O)N2C(C(=O)O)=C(CSc3nc(=O)c(=O)[nH]n3C)CS[C@H]12)c1csc(N)n1` [Ceftriaxone]?
Answer: time ceftriaxone appeared in the chyme ([1]; human): 1.5 to 2.5 h; time of second peak of ceftriaxone in chyme ([1]; human): 6 to 8 h; peak ceftriaxone in chyme ([1]; human, iv): 115 to 1400 µg/mL; plasma concentration of ceftriaxone, Period 1 versus Period 2 [2]: no significant difference

Question: For `CC1(C)[C@H](C(=O)O)N2C(=O)C[C@H]2S1(=O)=O` [Sulbactam, sulbactam], which “inhibition of SYN-004 activity in intestinal chyme” value (SYN-004) is on record?
Answer: Its value is “did not substantially inhibit SYN-004 activity”.

Question: With “SYN-004: beta-lactamase with the amino acid sequence of SEQ ID NO: 1; given orally as delayed-release capsule of enteric-coated pellets” as the compound, how does the systemic bioavailability [3] read?
Answer: Its systemic bioavailability is “not systemically bioavailable”.

Question: And the “Cmax (plasma)” value ([3]; 750 mg)?
Answer: The value was 1.4 ng/mL.

Question: What about the “Tmax (plasma)” value ([3]; 750 mg) of the same compound?
Answer: Its value is 1 to 4 h.

Question: What about the systemic bioavailability [4] of the same compound?
Answer: Its systemic bioavailability is “not systemically bioavailable”.

Question: What about the anti-SYN-004 antibodies [5] of the same compound?
Answer: The anti-SYN-004 antibodies was “No anti-SYN-004 antibodies were detected”.

Question: And the “degradation of ceftriaxone in chyme” value [1]?
Answer: The value was “effectively degraded ceftriaxone”.

Question: What about the “time measurable SYN-004 began to be detectable in the chyme” value [1] of the same compound?
Answer: The value was 5.5 h.
